“And” between values parts separate entries of the source, which are not always exact repeats. Identical values can stand only once.
B3: TRF homology domain of TRF1 (amino acids 62–268) (domain or fragment, human, UniProt P54274 62-268, looked up)
chain: EDAGLVAEAEAVAAGWMLDFLCLSLCRAFRDGRSEDFRRTRNSAEAIIHGLSSLTACQLRTIYICQFLTRIAAGKTLDAQFENDERITPLESALMIWGSIEKEHDKLHEEIQNLIKIQAIAVCMENGNFKEAEEVFERIFGDPNSHMPFKSKLLMIISQKDTFHSFFQHFSYNHMMEKIKSYVNYVLSEKSSTFLMKAAAKVVESKR
notes: Dimer by SEC-MALS; also called TRF1_(TRFH); source: E. coli BL21 (DE3), purified (Ni-NTA, amylose, ion exchange, SEC; 10% glycerol, room temperature)
B6: TERB1 TRF1-binding domain (amino acids 561–658) (domain or fragment, human, UniProt Q8NA31 561-658, looked up)
chain: TDPFTLCSDIINKEVVSFLATPSCSEMLTYRCSGCIAVEKSLNSRNFSKLLHSCPYQCDRHKVIVEAEDRYKSELRKSLICNKKILLTPRRRQRLSNE
notes: human TERB1, canonical isoform Q8NA31, amino acids 561-658; The discussion prints 568–658 once for TRFB; also called TERB1_(TRFB); TRFB; source: E. coli BL21 (DE3), co-expressed with TRF1 TRFH and/or TERB2, purified (Ni-NTA, amylose, ion exchange, SEC)
B8: TERB2 N-terminal end (amino acids 1–107) (domain or fragment, human, UniProt Q8NHR7 1-107, looked up)
chain: MFQGQRGWFCGSVSQDLRQFWVAEGGTISDPRAADFLFSCDASHPDTLRIYQSLDYIEDNATVFHAYYLSAVANAKIKNSVALGHFILPPACLQKEIRRKIGSFIWE
notes: Forms large aggregates in isolation; source: E. coli BL21 (DE3), co-expressed with TERB1, purified (Ni-NTA, amylose, ion exchange, SEC)

How the values were obtained:
[1] = molecular target: TRF homology domain of TRF1 (amino acids 62–268) (human) (UniProt P54274); assay: SEC-MALS; relative binding affinities estimated from dissociation of TRF1 TRFH–TERB1 complexes upon serial dilution (Supplementary Fig. 13a–d)
[2] = molecular target: GST-TERB1 TBM (Homo sapiens) (UniProt Q8NA31); details: cited from earlier work
TERB1 TBM (Homo sapiens) = TERB1 TBM (Homo sapiens) (UniProt Q8NA31); details: cited from earlier work
[3] = molecular target: MAJIN core, truncated (amino acids 1–106) (human); assay: SEC-MALS; purified (co-expressed) samples at > 1 mg/ml on Superdex 200 Increase 10/300 GL in 20 mM Tris pH 8.0, 250 mM KCl, 2 mM DTT
[4] = molecular target: MAJIN N-terminal structural core (amino acids 1–112) (human); assay: as above
[5] = molecular target: MAJIN core (amino acids 1–112) K24M K26E R28E K31D R34E R81D (human); assay: as above
[6] = molecular target: MAJIN core (amino acids 1–112) F73E Y75E (human); assay: as above
[7] = molecular target: MAJIN N-terminal structural core (amino acids 1–112) (human); assay: as above; remark: listed apart in the source
Target sequence in this assay (Q3KP22 1-112): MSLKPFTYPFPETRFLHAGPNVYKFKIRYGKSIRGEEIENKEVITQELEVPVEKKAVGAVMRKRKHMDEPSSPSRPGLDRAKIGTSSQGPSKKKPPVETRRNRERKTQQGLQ

[8] = molecular target: the molecule itself; assay: as above
[9] = molecular target: MAJIN_(Core+BP1)-TERB2–TERB1_(TRFB) complex (1–147, 1–220, 561–658) (human) (UniProt Q8NHR7); assay: SEC-MALS; complex reconstituted by adding TRF1 TRFH to purified MAJIN–TERB2–TERB1(TRFB) (Supplementary Fig. 12c); details: scale: TRF1 TRFH chains per 2:2:2 MAJIN–TERB2–TERB1 complex
[10] = molecular target: MAJIN core, truncated (amino acids 1–106) (human); assay: SEC-MALS; purified (co-expressed) samples at > 1 mg/ml on Superdex 200 Increase 10/300 GL in 20 mM Tris pH 8.0, 250 mM KCl, 2 mM DTT; remark: listed apart in the source
[11] = molecular target: T1, full length TERB2 (1–220) (human, UniProt Q8NHR7 1-220); assay: as above; details: both partners purified
T1 construct: human TERB2, canonical isoform Q8NHR7, full length, amino acids 1-220; source: E. coli BL21 (DE3), co-expressed with MAJIN and TERB1, purified (Ni-NTA, amylose, ion exchange, SEC)
T1 sequence (looked up): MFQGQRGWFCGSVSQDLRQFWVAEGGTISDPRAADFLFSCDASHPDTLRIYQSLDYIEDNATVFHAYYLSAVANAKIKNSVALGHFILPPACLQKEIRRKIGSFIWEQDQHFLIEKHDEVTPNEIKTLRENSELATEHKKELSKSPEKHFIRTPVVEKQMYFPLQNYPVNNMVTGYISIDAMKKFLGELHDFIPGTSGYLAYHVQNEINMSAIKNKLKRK

[12] = molecular target: B8; assay: as above; details: both partners purified
[13] = molecular target: B3; assay: as above; details: both partners purified
[14] = molecular target: B3; assay: SEC-MALS; relative binding affinities estimated from dissociation of TRF1 TRFH–TERB1 complexes upon serial dilution (Supplementary Fig. 13a–d); details: both partners purified
[15] = molecular target: B6; assay: SEC-MALS; purified (co-expressed) samples at > 1 mg/ml on Superdex 200 Increase 10/300 GL in 20 mM Tris pH 8.0, 250 mM KCl, 2 mM DTT; details: both partners purified
His6–TRF1_(TRFH) = molecular target: T2, His6–TRF1_(TRFH) (human, UniProt P54274 62-268); assay: SEC-MALS; co-purified His6–TRF1 TRFH complexes with MBP–TERB1 TRFB (9 µM) or MBP–TERB1 TBM (130 µM) incubated with 9 µM phosphorylated CDK1-CyclinB in 40 mM Tris pH 7.5, 250 mM KCl, 20 mM MgCl2, 2 mM ATP, 10 mM DTT, 10 min at 30 °C and 50 min at 22 °C; also SDS–PAGE with ProQ-Diamond; details: both partners purified
T2 construct: source: E. coli BL21 (DE3), co-purified with MBP–TERB1 fusions
T2 sequence (looked up): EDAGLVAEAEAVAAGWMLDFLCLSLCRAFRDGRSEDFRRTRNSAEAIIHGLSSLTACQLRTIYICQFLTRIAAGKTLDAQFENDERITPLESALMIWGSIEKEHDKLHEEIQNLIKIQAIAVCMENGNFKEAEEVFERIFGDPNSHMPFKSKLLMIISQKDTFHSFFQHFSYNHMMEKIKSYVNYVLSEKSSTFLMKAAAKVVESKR

TRF1 full length = TRF1 full length (human, UniProt P54274 1-439); assay: EMSA; apparent, Hill fit; EMSA: 20 mM Tris pH 8.0, 250 mM KCl, 1 h at 4 °C, 3% glycerol, 0.5% agarose in 0.5x TBE; 25 nM FAM-DNA for Kd (protein as oligomer), 0.3 uM DNA for display; details: protein: recombinant; tags: tag removed (TEV); chain copies: 2; label: 5' 6-FAM; blunt
Chain of TRF1 full length (P54274 whole entry): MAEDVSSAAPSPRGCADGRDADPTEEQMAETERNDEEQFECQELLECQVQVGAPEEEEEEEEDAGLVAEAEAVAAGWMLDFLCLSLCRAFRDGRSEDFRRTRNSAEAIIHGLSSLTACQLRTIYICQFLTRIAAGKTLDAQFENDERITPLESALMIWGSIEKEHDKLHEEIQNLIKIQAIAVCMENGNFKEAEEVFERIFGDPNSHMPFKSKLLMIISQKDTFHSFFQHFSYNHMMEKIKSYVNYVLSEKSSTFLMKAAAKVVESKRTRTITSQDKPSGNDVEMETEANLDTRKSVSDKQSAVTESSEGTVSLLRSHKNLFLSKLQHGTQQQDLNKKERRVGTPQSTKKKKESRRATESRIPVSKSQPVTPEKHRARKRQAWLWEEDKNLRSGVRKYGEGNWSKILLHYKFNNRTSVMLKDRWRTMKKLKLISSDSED

TERB1TBM (amino acids 642–658) (from UniProt Q8NA31 642-658) (peptide)
fold weaker binding than TERB1 TRFB [1]: > 100 fold

TRF1 TRFH (from UniProt P54274)
Kd [2]: 0.075 µM
Kd (TERB1 TBM (Homo sapiens)): 5.6 µM

MAJIN core, truncated (amino acids 1–106) (domain or fragment)
stoichiometry N (MAJIN chains in the 2:2 complex) [3]: 2

MAJIN N-terminal structural core (amino acids 1–112) (domain or fragment)
stoichiometry N (MAJIN chains in the 2:2:2 complex) [4]: 2
stoichiometry N (MAJIN chains in the 2:2 complex) [4]: 2

B1: TERB2 C-terminus (amino acids 168–220) (domain or fragment)
chain: PVNNMVTGYISIDAMKKFLGELHDFIPGTSGYLAYHVQNEINMSAIKNKLKRK
stoichiometry N (binder chains per target chain (1:1)) [5]: 1
stoichiometry N (binder chains per target chain (1:1)) [6]: 1
stoichiometry N (binder chains per target chain (2:2)) [7]: 1

B2: full length TERB2 (1–220) (natural protein)
chain: MFQGQRGWFCGSVSQDLRQFWVAEGGTISDPRAADFLFSCDASHPDTLRIYQSLDYIEDNATVFHAYYLSAVANAKIKNSVALGHFILPPACLQKEIRRKIGSFIWEQDQHFLIEKHDEVTPNEIKTLRENSELATEHKKELSKSPEKHFIRTPVVEKQMYFPLQNYPVNNMVTGYISIDAMKKFLGELHDFIPGTSGYLAYHVQNEINMSAIKNKLKRK
stoichiometry N (binder chains per target chain (2:2:2)) [7]: 1

B3
stoichiometry N [8]: 2 chains in the oligomer
stoichiometry N [9]: 4

B4: TERB2 C-terminus, truncated (amino acids 168–207) (domain or fragment)
chain: PVNNMVTGYISIDAMKKFLGELHDFIPGTSGYLAYHVQNE
stoichiometry N (binder chains per target chain (2:2)) [10]: 1

B5: TERB1 TERB2-binding site (amino acids 585–642) (domain or fragment, human, UniProt Q8NA31 585-642, looked up)
chain: SEMLTYRCSGCIAVEKSLNSRNFSKLLHSCPYQCDRHKVIVEAEDRYKSELRKSLICN
notes: human TERB1, canonical isoform Q8NA31, amino acids 585-642; Forms large aggregates in isolation; also called TERB1T2B; T2B; source: E. coli BL21 (DE3), co-expressed with TERB2, purified (Ni-NTA, amylose, ion exchange, SEC)
stoichiometry N [11]: 1 binder chains per target chain (2:2:2)
stoichiometry N [12]: 1 binder chains per target chain (1:1)

B6
stoichiometry N [13]: 0.5 binder chains per target chain (2:1 TRF1:TERB1) and 0.5 binder chains per target chain (2:1:1 TRF1:TERB1:TERB2)

B7: TERB1 TRF1-binding domain (amino acids 561–658) T648E (domain or fragment, human, UniProt Q8NA31 561-658, looked up)
chain: TDPFTLCSDIINKEVVSFLATPSCSEMLTYRCSGCIAVEKSLNSRNFSKLLHSCPYQCDRHKVIVEAEDRYKSELRKSLICNKKILLEPRRRQRLSNE
notes: human TERB1, canonical isoform Q8NA31, amino acids 561-658, phosphomimetic T648E; it may be an MBP fusion as in the phosphorylation assays; also called TERB1_(TRFB) T648E; source: E. coli BL21 (DE3), purified
fold higher affinity than wild-type TERB1 TBM [14]: ≥ 10 fold

B8
stoichiometry N [15]: 1 binder chains per target chain (2:1:1 TRF1:TERB1:TERB2)

B9: MBP–TERB1_(TRFB) partially phosphorylated by CDK1-CyclinB (domain or fragment, human, UniProt Q8NA31 561-658, looked up)
chain: TDPFTLCSDIINKEVVSFLATPSCSEMLTYRCSGCIAVEKSLNSRNFSKLLHSCPYQCDRHKVIVEAEDRYKSELRKSLICNKKILLTPRRRQRLSNE
modifications: only partially phosphorylated by CDK1-CyclinB (residue not named for this experiment)
notes: human TERB1, canonical isoform Q8NA31, amino acids 561-658; source: E. coli BL21 (DE3), co-purified with His6–TRF1 TRFH, then incubated with phosphorylated CDK1-CyclinB and ATP
stoichiometry N (His6–TRF1_(TRFH)): 0.5 binder chains per target chain (2:1 TRF1:TERB1)

B10: FAM random dsDNA (145 bp) (dsDNA)
DNA 1: TTCCAGGGTTCCATGGAGATAAAGGTCAATAAATTAGAGTTAGAACTAGAAAGTGCCAAACAGAAATTTGGAGAAATCACAGACACCTATCAGAAAGAAATTGAGGACAAAAAGATATCAGAATAATAACCATGGATATCGAATT
DNA 2: AATTCGATATCCATGGTTATTATTCTGATATCTTTTTGTCCTCAATTTCTTTCTGATAGGTGTCTGTGATTTCTCCAAATTTCTGTTTGGCACTTTCTAGTTCTAACTCTAATTTATTGACCTTTATCTCCATGGAACCCTGGAA
Kd (TRF1 full length): 0.1 µM
